Experimental findings from patent US20180355035A1 (STCUBE, published 2018) are described below.

Test [1] addresses T1, hBTN1A1 overexpressed in PC3 prostate cancer cells (human, UniProt Q13410 27-526).
T1 sequence: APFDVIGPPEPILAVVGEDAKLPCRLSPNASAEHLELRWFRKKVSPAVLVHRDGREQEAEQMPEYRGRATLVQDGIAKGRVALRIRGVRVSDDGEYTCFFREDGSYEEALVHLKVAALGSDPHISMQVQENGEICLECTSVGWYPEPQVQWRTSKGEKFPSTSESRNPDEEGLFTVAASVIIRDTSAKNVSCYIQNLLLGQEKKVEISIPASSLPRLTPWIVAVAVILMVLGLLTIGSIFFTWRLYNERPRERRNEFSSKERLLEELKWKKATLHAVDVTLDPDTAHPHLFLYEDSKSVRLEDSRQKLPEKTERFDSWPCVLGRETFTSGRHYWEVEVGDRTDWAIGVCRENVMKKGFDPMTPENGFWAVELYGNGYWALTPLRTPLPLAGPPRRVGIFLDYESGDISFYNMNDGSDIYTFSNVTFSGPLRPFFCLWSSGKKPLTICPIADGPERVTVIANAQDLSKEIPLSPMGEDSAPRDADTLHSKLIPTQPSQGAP
The experiment in a line: cell-based or functional assay.

Test [2] concerns the target T2, wild-type human BTN1A1 expressed in HEK293T cells (human, UniProt Q13410 27-526, fully glycosylated, as the filing says).
T2 construct: in whole-cell lysates in the Western blot; also called BTN1A1 WT; human BTN1A1 WT; not shown: C-terminal flag tag
T2 sequence: T1 sequence
Briefly: FACS on 293T cells overexpressing BTN1A1 WT or 2NQ, FITC secondary antibody. The method, then:
FIG. 10—FACS analysis of mouse anti-human BTN1A1 monoclonal antibodies. Human BTN1A1-2NQ (i.e. N55Q and N215Q) and human BTN1A1 WT were expressed in HEK293T cells by transient transfection. The surface expression of hBTN1A1 was measured by FACS analysis with anti-BTN1A1 monoclonal antibodies designated as STC702, STC810, STC819, STC820, STC821, STC822, STC838, and STC839. Anti-BTN1A1 polyclonal antibodies were used as a positive control.
The glyco-specificity of monoclonal anti-BTN1A1 antibodies was characterized by dot blot analysis. Each anti-BTN1A1 mAb (0.5 μg/well loaded) was tested for binding to glycosylated BTN1A1 (PNGaseF “−”) or deglycosylated BTN1A1 (PNGaseF “+”). Non-specific antibody controls (“IgG,” 0.25 μg/well loaded) was also included in the assay. As shown in FIGS. 9A-9B, both glycosylated BTN1A1 protein and non-glycosylated BTN1A1 (BTN1A1 protein treated with PNGase F) were coated on the solid phase and tested for mAbs and antigens binding affinity. […] The glyco-specificity of monoclonal anti-BTN1A1 antibodies was also characterized by FACS analysis. […] After washing, fluorescence intensity (MFI) was measured to assess relative binding of antibodies to membrane bound glycosylated or unglycosylated BTN1A1. […]

The target in test [3] is T3, human BTN1A1 extracellular domain tagged with human IgG1 Fc (human, UniProt Q13410 27-242).
T3 construct: also called hBTN1A1-Fc; BTN1A1-Fc; not shown: human IgG1 Fc region
T3 chain: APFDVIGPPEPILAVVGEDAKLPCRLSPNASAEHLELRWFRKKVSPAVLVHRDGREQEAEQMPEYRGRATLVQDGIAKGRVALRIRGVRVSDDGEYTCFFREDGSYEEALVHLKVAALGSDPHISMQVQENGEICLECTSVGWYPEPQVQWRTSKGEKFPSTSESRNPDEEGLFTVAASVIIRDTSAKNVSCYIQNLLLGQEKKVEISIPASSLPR
The experiment in a line: SPR (Biacore), STC810 captured on Protein A chip, BTN1A1-ECD-Fc injected. The method, then:
(§1) FIG. 11—Surface plasmon resonance analysis of BTN1A1-Fc and BTN1A1-His binding to immobilized STC810 MAb. FIG. 11A: Sensorgrams showing real-time binding of soluble BTN1A1-Fc protein (2-64 nM with 2-fold dilution) to STC810 immobilized on a Protein A-CM5 chip. Flow cells without any immobilized protein were used as the controls for non-specific binding and were subtracted from the presented data. FIG. 11B: Sensorgrams showing real-time binding of soluble BTN1A1-His protein (2-64 nM with 4-fold dilution) to STC810 immobilized on a Protein A-CM5 chip.
(§2) In a Biacore assay, the binding affinity between BTN1A1 and monoclonal anti-BTN1A1 antibody STC810 was measured by Surface Plasmon Resonance. Sensorgram and saturation curve of the titration of antibody by BTN1A1-ECD tagged with 6×His or human IgG1 Fc. The protein A chip (BIAcore) was coated with antibody with 600 response units (RU) and the BTN1A1 ECD was injected in the microfluidic channel. The KD values were obtained using the fitting tool of the BIAevaluation software (BIAcore). FIG. 11 provides sensorgrams showing real-time binding of soluble BTN1A1-Fc protein (2-64 nM with 2-fold dilution; FIG. 11A) or soluble BTN1A1-His protein (2-64 nM with 4-fold dilution; FIG. 11B) to STC810 immobilized on a Protein A-CM5 chip. […]

Test [4] deals with T4, human BTN1A1 extracellular domain tagged with 6xHis (human, UniProt Q13410 27-242, N-glycosylated (removed by PNGase F in the deglycosylated control)).
T4 construct: also called hBTN1A1-His; BTN1A1-His
T4 chain: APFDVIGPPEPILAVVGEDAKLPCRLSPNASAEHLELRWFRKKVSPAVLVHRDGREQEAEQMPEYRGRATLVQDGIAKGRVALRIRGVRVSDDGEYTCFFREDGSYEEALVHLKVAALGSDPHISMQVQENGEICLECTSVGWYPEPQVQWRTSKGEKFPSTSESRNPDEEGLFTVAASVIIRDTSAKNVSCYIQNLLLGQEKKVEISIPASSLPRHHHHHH
The experiment in a line: SPR (Biacore), STC810 captured on Protein A chip, BTN1A1-ECD-His injected. The method, then:
as §1, §2
On the technique in general: Surface plasmon resonance follows binding to a sensor surface in real time, without labels.

The target in test [5] is T3, human BTN1A1 extracellular domain …. Briefly: BLI (Octet), antibody loaded on sensor, single analyte concentration, 1:1 fit. The protocol: (§3) The KD value of STC810 was also determined in an octet assay. […] Baseline was established in PBS containing 1 mg/ml bovine serum albumin (assay buffer), the association step was performed by submerging the sensors in a single concentration of analyte in assay buffer. Dissociation was performed and monitored in fresh assay buffer. All experiments were performed with sensor shaking at 1,000 rpm. ForteBio's data analysis software was used to fit the data to a 1:1 binding model to extract an association rate and dissociation rate. The KD value was calculated using the ratio kd/ka. In a typical epitope binning assay, antigen BTN1A1-Fc (10 nM) was preincubated with the second antibody (10 nM) for 1 h at room temperature. Control antibody (20 nM) was loaded onto AMC sensors (ForteBio) and remaining Fc-binding sites on the sensor were blocked with a whole mouse IgG antibody (Jackson ImmunoResearch). The sensors were exposed to preinculated antigen-second antibody mixture. Raw data was processed using ForteBio's Data Analysis Software 7.0 and the antibody pairs were assessed for competitive binding. Additional binding by the second antibody indicates an unoccupied epitope (non-competitor), while no binding indicates epitope blocking (competitor).
Background: BLI is a label-free optical method that tracks binding on a fibre tip over time.

Test [6] has the same target. The experiment in a line: SPR (Biacore), STC810 captured on Protein A chip, BTN1A1-ECD-Fc injected; column headed 'ka (1/s)'. The method, then:
as §1, §2

The target is the same in test [7]. The experiment in a line: SPR (Biacore), STC810 captured on Protein A chip, BTN1A1-ECD-Fc injected; column headed 'kd (1/Ms)'. The protocol:
as §1, §2

Test [8] addresses T4, human BTN1A1 extracellular domain …. Briefly: SPR (Biacore), STC810 captured on Protein A chip, BTN1A1-ECD-His injected; column headed 'ka (1/s)'. The protocol:
as §1, §2

Test [9] has the same target. The experiment in a line: SPR (Biacore), STC810 captured on Protein A chip, BTN1A1-ECD-His injected; column headed 'kd (1/Ms)'. The protocol: as §1, §2
The target in test [10] is T3, human BTN1A1 extracellular domain …. The experiment in a line: BLI (Octet), antibody loaded on sensor, single analyte concentration, 1:1 fit; column headed 'ka (1/s)'. The protocol: as §3
Test [11] has the same target. The experiment in a line: BLI (Octet), antibody loaded on sensor, single analyte concentration, 1:1 fit; column headed 'kd (1/Ms)'. The protocol:
as §3

Another test has as its target T5, mBTNA1A-FC (Mus musculus, UniProt Q62556).
T5 construct: antigen of lanes 5-8 of the dot blot, used untreated and PNGase F treated; the sheet prints mBTNA1A-FC; also called mouse BTN1A1-Fc; mouse BTN1A1 tagged with human IgG1 Fc region
T5 sequence (Fc fusion chain, looked up): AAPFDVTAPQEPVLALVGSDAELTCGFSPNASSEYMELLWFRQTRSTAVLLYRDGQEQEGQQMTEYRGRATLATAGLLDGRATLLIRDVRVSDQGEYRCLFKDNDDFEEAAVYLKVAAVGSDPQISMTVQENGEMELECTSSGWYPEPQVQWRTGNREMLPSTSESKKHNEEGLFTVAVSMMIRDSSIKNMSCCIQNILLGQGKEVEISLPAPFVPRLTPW
The experiment in a line: dot blot (layout FIG. 9B), lanes 5-8 mBTNA1A-FC = mouse BTN1A1-Fc, untreated and PNGase F treated. The method, then:
FIG. 9—Dot blot analysis of mouse anti-human BTN1A1 antibodies. […] Antigen BTN1A1-ECD tagged with 6×His was treated with PNGase F to remove N-glycosylation. Polyclonal antibodies were used for positive control. To test the species specificity of BTN1A1, human and mouse BTN1A1 tagged with human IgG1 Fc region was used (lane 1-4 with human BTN1A1-Fc and lane 5-8 with mouse BTN1A1-Fc). The term “ECD” stands for extracellular domain.
The glyco-specificity of monoclonal anti-BTN1A1 antibodies was characterized by dot blot analysis. Each anti-BTN1A1 mAb (0.5 μg/well loaded) was tested for binding to glycosylated BTN1A1 (PNGaseF “−”) or deglycosylated BTN1A1 (PNGaseF “+”). Non-specific antibody controls (“IgG,” 0.25 μg/well loaded) was also included in the assay. As shown in FIGS. 9A-9B, both glycosylated BTN1A1 protein and non-glycosylated BTN1A1 (BTN1A1 protein treated with PNGase F) were coated on the solid phase and tested for mAbs and antigens binding affinity. […] The glyco-specificity of monoclonal anti-BTN1A1 antibodies was also characterized by FACS analysis. […] After washing, fluorescence intensity (MFI) was measured to assess relative binding of antibodies to membrane bound glycosylated or unglycosylated BTN1A1.

B1: mouse monoclonal anti-human BTN1A1 antibody STC810 (antibody, V domains shown)
VH: EVQLQQSGPELVKPGASVKISCKASGYTFTHYNMDWVKQSHGKSLEWIGYIYPSNGGTGYNQKFKSRATLTVDKSSSTAYMELHSLTSEDSAVYYCARGAYHYGSSYAYWYFDVWGAGTTVTVSS
VL: DIQMTQTTSSLSASLGDRVTISCSASQDISNYLNWYQQKPDETVKLLISYTSSLHSGVPSRFSGSGSGTDYSLTISNLAPEDIATYYCQQSSKLPFTFGSGTELEIKR
notes: also called STC838; STC810 MAb
As usually defined, the Kd is the equilibrium constant for the complex coming apart. A word on the koff: it is the first-order rate constant of dissociation. A low value points to a long-lived complex. The term kon denotes the second-order rate constant of association. Higher therefore signals fast association. With B1, the “relative apoptosis of PC3 cells at 120 h (caspase 3/7), with activated T cells, 50 µg/ml STC810” value in test [1] was found to be 2 fold. Besides, the “fold MFI on glycosylated BTN1A1 (WT) over unglycosylated BTN1A1 (2NQ)” value in test [2] was 5 fold. Also, the Kd in [3] turned out to be 1.81 nM; in [4], 14.9 nM; in test [5], 2.12 nM. The values for the dissociation rate constant (koff) in test [6], in test [8] and in [10] were 0.00018 s⁻¹, 0.00402 s⁻¹ and 0.000309 s⁻¹, respectively. Moreover, the kon in [7] amounted to 98900 M⁻¹ s⁻¹; in test [9], 269000 M⁻¹ s⁻¹; in test [11] it was 145000 M⁻¹ s⁻¹. Moreover, the binding result in the test with mBTNA1A-FC was “no binding (tested: 0.5 µg/well)”.
